PMC9103184, “Kunitz-Type Peptides from Sea Anemones Protect Neuronal Cells against Parkinson’s Disease Inductors via Inhibition of ROS Production and ATP-Induced P2X7 Receptor Activation” (International Journal of Molecular Sciences, 2022)
Like-named read-outs stand apart in the source and are kept apart here.

Legend:
[1] = Thermal stability by CD spectroscopy; assay type: physicochemical
Experimental: Figure 5 Evaluation of the thermal stability of peptides in deionized water via CD spectroscopy. Recordings of the CD spectra of HCIQ2c1 (a), HMIQ3c1 (b), HCIQ4c7 (c), and HCIQ1c9 (d) were conducted in the far UV region (190–240 nm) after the solutions were incubated over a temperature range from 25 °C to 100 °C for 20–25 min.
Circular dichroism (CD) spectra were recorded on a Chirascan-Plus CD spectropolarimeter (Applied Photophysics, Leatherhead, UK) in quartz cuvettes with an optical path length of 0.1 cm for the peptide spectrum region. The peptides were dissolved in deionized water ([…]) and incubated at temperatures ranging from 25 °C to 100 °C for 20–25 min before recording the CD spectra. The secondary structure elements were calculated using the Provencher–Glockner method using advanced Provencher calculation programs from the CDPro software package (Leatherhead, UK).

Neuro-2a cells [2] = test: Paraquat-induced toxicity, cell viability (MTT); assay type: cell-based, murine; conditions: peptide up to 10 μM, 600 μM paraquat, 24 h
Experimental: The murine neuroblastoma cell line Neuro-2a was purchased from ATCC (CCL-131, American Type Culture Collection, Manassas, VA, USA). Cells were cultured in Dulbecco’s modified Eagle’s medium (DMEM) (Biolot, St. Petersburg, Russia) containing 10% fetal bovine serum (Biolot, St. Petersburg, Russia) and 1% penicillin/streptomycin (Biolot, St. Petersburg, Russia) according to ATCC’s instruction. Cells were incubated at 37 °C in a humidified atmosphere containing 5% CO2 (v/v). Before the experiments, Neuro-2a cells at a concentration of 1 × 10^4 cells/well were dispensed into 96-well plates and incubated for 24 h in a humidified atmosphere containing 5% CO2 to allow cell attachment.
Then, 20 μL of substance solution was loaded into the cells and incubated for 24 h followed by replacement of the medium with tested substances and 100 μL of fresh medium. Then, 10 μL of MTT (3-(4,5-dimethylthiazol-2-yl)-2,5- diphenyltetrazolium bromide) (Sigma-Aldrich, St. Louis, MO, USA) stock solution (5 mg/mL) was added to each well and the microplate was incubated for 4 h. […] The absorbance of the converted dye formazan was measured using a Multiskan FC microplate photometer (Thermo Scientific, Waltham, MA, USA) at a wavelength of 570 nm. […] Cytotoxic activity was expressed as the percentage of cell viability. […]

Neuro-2a cells [3] = test: Paraquat-induced ROS formation (H2DCF-DA); assay type: cell-based, murine; conditions: peptide 0.01 μM, 600 μM paraquat 3 h, means ± SE
Experimental: Figure 8 Effects of the peptides on intracellular ROS and NO formation. The effects of the peptides on ROS formation into Neuro-2a cells treated by 600 μM paraquat (a) and 10 μM rotenone (b). The effects of peptides on NO formation into the cells treated by 600 μM paraquat (c) and 10 μM rotenone (d). Cells were incubated with peptides for 1 h at 37 °C, then 3 or 1 h with paraquat or rotenone, respectively. The data are shown as the means ± SE; *—p < 0.05, **—p < 0.01, #—p < 0.05 when comparing concentrations of the same peptide.
Neuro-2a cells were incubated with peptides at concentrations of 0.01, 0.1, and 1 µM for 1 h. Then, paraquat (600 μM) or rotenone (10 µM) was added to each well and cells were incubated for 3 or 1 h, respectively. To study the ROS formation, the 2,7-dichlorodihydrofluorescein diacetate (H2DCF-DA) assay was performed according to the manufacturer’s instructions (Molecular Probes, Eugene, OR, USA). […]
To determine the NO production, a 4-amino-5-methylamino-2′,7′-difluorofluorescein diacetate (DAF-FM) assay was performed according to the manufacturer’s instructions (Invitrogen, Carlsbad, CA, USA). […] In both cases, the fluorescence intensity was measured using a PHERAstar FS high-speed plate reader (BMG Labtech, Ortenberg, Germany) at λex = 485 nm and λem = 518 nm. […]

trypsin = molecular target: T1, trypsin (Bos taurus, UniProt P00760); conditions: cited from earlier work
T1 sequence (P00760 24-246): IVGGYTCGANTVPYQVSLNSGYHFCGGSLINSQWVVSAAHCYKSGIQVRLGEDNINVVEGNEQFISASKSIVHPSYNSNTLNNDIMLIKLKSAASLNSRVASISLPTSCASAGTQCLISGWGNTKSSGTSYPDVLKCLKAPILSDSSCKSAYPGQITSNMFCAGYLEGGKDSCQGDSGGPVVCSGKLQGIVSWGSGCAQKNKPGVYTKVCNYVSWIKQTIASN
Experimental: As mentioned above, the main function of Kunitz-type peptides is the inhibition of proteases, in particular trypsin. To confirm the bioactive conformation of HCIQ1c9, its ability to inhibit trypsin was determined. […] The decrease in trypsin-inhibitory activity of HCIQ1c9 and HCIQ4c7 in comparison with HCIQ2c1 is probably associated ... || The active spatial conformation of the peptides was also confirmed by the presence of trypsin-inhibitory activity. […] Thus, both negatively and positively charged residues at position P1’ led to decreases in the trypsin-inhibitory activity of the peptides, with HCIQ4c7 beings a stronger trypsin inhibitor than HCIQ1c9. This was due to the residue Glu17, which can make additional contact with ...

Question: With “HCIQ2c1: recombinant Kunitz-type peptide from Heteractis crispa, UniProtKB ID A0A6B7FBD3 (IQGNICSEPKKVGRCRGSFPRFYFDSETGKCTPFIYGGCGGNGNNFETLHACRAICRA; UniProt A0A6B7FBD3 28-85, looked up)” as the substance, how does the “CD spectral change on further heating” value ([1]; 100 °C, deionized water, 20–25 min) read?
Answer: The value was “decreased positive peaks at 193 nm”.

Question: What about the “thermostability: retains conformation and biological activity until” value ([1]; CD spectra and residual trypsin-inhibitory activity) of the same substance?
Answer: The value was 90–100 °C.

Question: What about the “CD spectrum: no significant changes after heating until” value ([1]; deionized water, 25–100 °C for 20–25 min, 190–240 nm) of the same substance?
Answer: Its value is 90 °C.

Question: And the “influence on viability of paraquat-treated cells” value (Neuro-2a cells [2])?
Answer: The value was “did not influence the viability”.

Question: And the “decrease in paraquat-induced ROS level” value (Neuro-2a cells [3])?
Answer: The value was 30.7 ± 1.8%.

Question: And the Ki (trypsin; as shown previously, ref not printed at place, read-out: inhibited trypsin at (order of magnitude))?
Answer: The Ki was roughly 10 nM.

Question: What about the Ki (trypsin; read-out: trypsin inhibitory constant (Ki)) of the same substance?
Answer: Its Ki is 52 nM.
